Five molecules from publication PMC4175335, “Thiosulfate Transfer Mediated by DsrE/TusA Homologs from Acidothermophilic Sulfur-oxidizing Archaeon Metallosphaera cuprina*” (The Journal of Biological Chemistry, 2014) can be followed below.

Sequences and labels used below:
B1: DsrE3A (Mcup_0681) of Metallosphaera cuprina Ar-4, N-terminally His-tagged (natural protein, UniProt F4G1H3 1-133, looked up)
chain: MAQTQTEQAQEEQKKKILIVVTHGPEDLDRTYAPLFMASISASMEYETSVFFMIKGPLLLSKKWQEDERKKGGNPFIHFFDMAKDNNVKMYVCVQSLKDMCHMNESDVVDGIELVGGSTLIDLTLDADRTLFF
notes: DsrE3A, locus Mcup_0681, Metallosphaera cuprina Ar-4; gene amplified from genomic DNA into pET15b; theoretical mass with His tag 17,697 Da; Homotrimer by gel filtration

In data set [1] the target is DsrE3A-C93S/C101S with His-tag (Metallosphaera cuprina Ar-4). In words: SEC; oligomerization analysis, data not shown; proteins incubated with or without 25 μM TCEP at room temperature for 1 h; HiLoad 16/60 Superdex 75; 50 mM Tris-HCl (pH 7.5), 150 mM KCl; 0.5 ml/min. (Size exclusion chromatography separates by hydrodynamic size, large species first.)
Data set [2] has as its target DsrE3A-C101S with His-tag (Metallosphaera cuprina Ar-4). Described as above.
In data set [3] the target is DsrE3A-C93S with His-tag (Metallosphaera cuprina Ar-4). The data set is described as above.
Data set [4] concerns the molecule itself. The description is as above.
Data set [5] concerns the target B1. In words: SPR; Biacore 3000, CM5 chip, 25 °C; DsrE3A covalently immobilised (about 1500 RU); TusA as analyte in PBST (PBS, 0.005% Tween 20, pH 7.4), 30 μl/min, 2 min injection, 8 min dissociation. The conditions noted are these: both partners purified.

Broadly, the stoichiometry N is the number of molecules, sites or subunits per partner or assembly. In the case of “DsrE3A-C93S/C101S with His-tag (natural protein)”, the stoichiometry N in data set [1] amounted to 3.
“DsrE3A-C101S with His-tag (natural protein)”: in data set [2], the stoichiometry N was found to be 3.
For the molecule “DsrE3A-C93S with His-tag (natural protein)”, the stoichiometry N in data set [3] amounted to 3.
Take B1: the “stoichiometry N” value in data set [4] stood at 3.

B2: TusA (Mcup_0683) of Metallosphaera cuprina Ar-4, N-terminally His-tagged (natural protein, UniProt F4G1H5 1-80, looked up)
chain: MAQDVKITKTLDVKGMYCPGPVMETAKAIKQINVGEVLEVLATDPAAKPDIEAWARRTGNQILDIQQQGGVTRILVKRAK
notes: TusA, locus Mcup_0683, Metallosphaera cuprina Ar-4; gene amplified from genomic DNA into pET15b; theoretical mass with His tag 10,895 Da; Occurs as monomers and dimers
For orientation: Kd means the equilibrium constant for the complex coming apart. High values mean lower affinity, low ones higher affinity. In data set [5], B2 displayed a Kd of 0.1 nM. For the same molecule, the “stoichiometry N” value in data set [4] was 2.
